Measured values reported in US6583276 (TECHNION RESEARCH AND DEVELOPMENT, dated 2003).

B1: VEGF121 (ligand, human, UniProt P15692-9 27-147, looked up)
chain: APMAEGGGQNHHEVVKFMDVYQRSYCHPIETLVDIFQEYPDEIEYIFKPSCVPLMRCGGCCNDEGLECVPTEESNITMQIMRIKPHQGQHIGEMSFLQHNKCECRPKKDRARQEKCDKPRR
notes: mature; VEGF121 isoform of VEGF-A
B2: VEGF145 (recombinant human vascular endothelial growth factor form of 145 amino acids, exons 1-5, 6a and 8) (ligand)
chain: APMAEGGGQNHHEVVKFMDVYQRSYCHPIETLVDIFQEYPDEIEYIFKPSCVPLMRCGGCCNDEGLECVPTEESNITMQIMRIKPHQGQHIGEMSFLQHNKCECRPKKDRARQEKKSVRGKGKGQKRKRKKSRYKSWSVCDKPRR
notes: Produced in Sf9 insect cells with a recombinant baculovirus and partially purified on heparin-sepharose; also called r-VEGF

Biological target: T1, KDR/flk-1 VEGF receptor of HUVEC cells (human, UniProt P35968 20-1356)
T1 construct: whole, on cells; Endogenous receptor on confluent HUVEC cells
T1 sequence (P35968 20-1356): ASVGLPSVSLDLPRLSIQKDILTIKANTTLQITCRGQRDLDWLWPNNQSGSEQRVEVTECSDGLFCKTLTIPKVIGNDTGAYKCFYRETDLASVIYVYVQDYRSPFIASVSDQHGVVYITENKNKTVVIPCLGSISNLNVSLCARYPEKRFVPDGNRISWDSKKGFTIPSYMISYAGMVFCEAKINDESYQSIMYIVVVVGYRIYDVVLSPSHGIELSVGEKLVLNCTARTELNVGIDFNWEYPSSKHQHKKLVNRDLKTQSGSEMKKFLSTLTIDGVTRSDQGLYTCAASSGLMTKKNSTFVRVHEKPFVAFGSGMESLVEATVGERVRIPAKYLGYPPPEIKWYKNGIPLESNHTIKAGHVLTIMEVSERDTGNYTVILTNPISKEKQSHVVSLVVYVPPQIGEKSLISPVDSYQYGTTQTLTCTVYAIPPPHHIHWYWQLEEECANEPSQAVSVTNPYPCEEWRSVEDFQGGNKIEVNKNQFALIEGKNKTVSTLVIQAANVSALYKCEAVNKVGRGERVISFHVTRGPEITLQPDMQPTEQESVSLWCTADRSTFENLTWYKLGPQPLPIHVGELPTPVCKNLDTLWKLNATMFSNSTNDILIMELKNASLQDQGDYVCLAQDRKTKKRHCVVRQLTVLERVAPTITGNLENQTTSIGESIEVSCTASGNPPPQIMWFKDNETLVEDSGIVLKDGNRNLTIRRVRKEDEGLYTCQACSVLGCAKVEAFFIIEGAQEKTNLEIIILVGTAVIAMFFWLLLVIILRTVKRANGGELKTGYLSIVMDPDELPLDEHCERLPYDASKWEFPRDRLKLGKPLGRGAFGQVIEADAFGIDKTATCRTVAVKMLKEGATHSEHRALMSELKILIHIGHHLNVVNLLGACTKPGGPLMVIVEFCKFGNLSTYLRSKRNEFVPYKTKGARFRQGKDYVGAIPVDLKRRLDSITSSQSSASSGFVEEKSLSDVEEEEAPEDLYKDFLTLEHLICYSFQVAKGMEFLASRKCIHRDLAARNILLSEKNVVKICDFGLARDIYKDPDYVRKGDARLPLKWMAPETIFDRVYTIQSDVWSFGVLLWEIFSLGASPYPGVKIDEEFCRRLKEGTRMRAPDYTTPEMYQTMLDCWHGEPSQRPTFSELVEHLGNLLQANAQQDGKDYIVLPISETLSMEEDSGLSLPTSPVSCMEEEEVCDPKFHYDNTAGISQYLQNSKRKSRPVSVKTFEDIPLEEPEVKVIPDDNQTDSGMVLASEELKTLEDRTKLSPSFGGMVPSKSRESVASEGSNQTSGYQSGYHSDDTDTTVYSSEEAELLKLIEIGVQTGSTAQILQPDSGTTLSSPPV
Assay: overview table, row 'Binding to Flk-1 and Flt-1 receptors'

Binder | binding result
B1 | binds
B2 | binds
